{"source": "patent US20210371526A1", "about": "(AMPSOURCE BIOPHARMA SHANGHAI, published 2021)", "key": {"[1]": {"molecular_target": "T1, Mucin1 on tumor cells (MCF-7, BT-549, HCC70, T-47D, HCC1954, SK-OV-3, Hela, HT-29) (human, UniProt P15941 24-1255)", "experiment": "cell-based or functional assay"}, "[2]": {"molecular_target": "T1, Mucin1 on tumor cells (MCF-7, BT-549, …)", "experiment": "cell-based or functional assay", "remark": "listed apart in the source"}, "[3]": {"molecular_target": "T1, Mucin1 on tumor cells (MCF-7, BT-549, …)", "experiment": "flow cytometry on HCC1954 cells"}, "[4]": {"molecular_target": "T1, Mucin1 on tumor cells (MCF-7, BT-549, …)", "experiment": "flow cytometry on T-47D cells"}, "[5]": {"molecular_target": "T1, Mucin1 on tumor cells (MCF-7, BT-549, …)", "experiment": "flow cytometry on Hela cells"}, "[6]": {"molecular_target": "T1, Mucin1 on tumor cells (MCF-7, BT-549, …)", "experiment": "flow cytometry on SK-OV-3 cells"}, "[7]": {"molecular_target": "T1, Mucin1 on tumor cells (MCF-7, BT-549, …)", "experiment": "flow cytometry on HCC70 cells"}, "[8]": {"molecular_target": "T1, Mucin1 on tumor cells (MCF-7, BT-549, …)", "experiment": "flow cytometry on BT-549 cells"}}}
{"binder": "Bispecific antibody AB11K (Anti-Mucin1×CD3, scFv1-scFv2-Fc) (bispecific antibody) EVQLVESGGGLVQPGGSMRLSCVASGFPFSNYWMNWVRQAPGKGLEWVGEIRLKSNNYTTHYAESVKGRFTISRDDSKNSLYLQMNSLKTEDTAVYYCTRHYYFDYWGQGTLVTVSSGGGGSGGGGSGGGGSDIVMTQSPLSNPVTPGEPASISCRSSKSLLHSNGITYFFWYLQKPGQSPQLLIYQMSNLASGVPDRFSGSGSGTDFTLRISRVEAEDVGVYYCAQNLELPPTFGQGTKVEIKGGGGGGSGGGGSGGGGSSSSSKAPPPSEVQLLESGGGLVQPGGSLKLSCAASGFTFNTYAMNWVRQAPGKGLEWVARIRSKYNNYATYYADSVKDRFTISRDDSKNTAYLQMNNLKTEDTAVYYCVRHGNFGNSYVSWFAYWGQGTLVTVSSGGGGSGGGGSGGGGSELVVTQEPSLTVSPGGTVTLTCRSSTGAVTTSNYANWVQQKPGQAPRGLIGGTNKRAPGTPARFSGSLLGGKAALTLSGVQPEDEAEYYCALWYSNLWVFGGGTKLTVLDKTHTCPPCPAPEAAGGPSVFLFPPKPKDQLMISRTPEVTCVVVDVSHEDPEVKFNWYVDGVEVHNAKTKPREEQYASTYRVVSVLTVLHQDWLNGKEYKCKVSNKALPASIEKTISKAKGQPREPQVYTLPPSRDELTKNQVSLTCLVKGFYPSDIAVEWESNGQPENNYKTTPPVLDSDGSFFLYSKLTVDKSRWQQGNVFSCSVLHEALHNHYTQKSLSLSPG", "values": [{"measurement": "T cell activation EC50 (Jurkat-NFAT luciferase) with BT-549 cells", "setting": "[1]", "result": 10.5, "unit": "nM"}, {"measurement": "T cell activation EC50 (Jurkat-NFAT luciferase) with HCC70 cells", "setting": "[1]", "result": 3.02, "unit": "nM"}, {"measurement": "T cell activation EC50 (Jurkat-NFAT luciferase) with HCC1954 cells", "setting": "[1]", "result": 5.6, "unit": "nM"}, {"measurement": "T cell activation EC50 (Jurkat-NFAT luciferase) with HT-29 cells", "setting": "[1]", "result": 6.71, "unit": "nM"}, {"measurement": "T cell activation EC50 (Jurkat-NFAT luciferase) with Hela cells", "setting": "[1]", "result": 7.24, "unit": "nM"}, {"measurement": "T cell activation EC50 (Jurkat-NFAT luciferase) with MCF-7 cells", "setting": "[1]", "result": 14.2, "unit": "nM"}, {"measurement": "T cell activation EC50 (Jurkat-NFAT luciferase) with SK-OV-3 cells", "setting": "[1]", "result": 10.4, "unit": "nM"}, {"measurement": "T cell activation EC50 (Jurkat-NFAT luciferase) with T-47D cells", "setting": "[1]", "result": 0.629, "unit": "nM"}, {"measurement": "PBMC killing EC50, BT-549 cells", "setting": "[2]", "result": 0.956, "unit": "nM"}, {"measurement": "PBMC killing EC50, HCC70 cells", "setting": "[2]", "result": 0.595, "unit": "nM"}, {"measurement": "PBMC killing EC50, HCC1954 cells", "setting": "[2]", "result": 1.89, "unit": "nM"}, {"measurement": "PBMC killing EC50, HT-29 cells", "setting": "[2]", "result": 9.55, "unit": "nM"}, {"measurement": "PBMC killing EC50, Hela cells", "setting": "[2]", "result": 4.81, "unit": "nM"}, {"measurement": "PBMC killing EC50, MCF-7 cells", "setting": "[2]", "result": 0.131, "unit": "nM"}, {"measurement": "T cell killing EC50, BT-549 cells", "setting": "[2]", "result": 0.141, "unit": "nM"}, {"measurement": "T cell killing EC50, HCC70 cells", "setting": "[2]", "result": 0.185, "unit": "nM"}, {"measurement": "T cell killing EC50, HCC1954 cells", "setting": "[2]", "result": 0.281, "unit": "nM"}, {"measurement": "T cell killing EC50, HT-29 cells", "setting": "[2]", "result": 1.58, "unit": "nM"}, {"measurement": "T cell killing EC50, Hela cells", "setting": "[2]", "result": 0.278, "unit": "nM"}, {"measurement": "T cell killing EC50, MCF-7 cells", "setting": "[2]", "result": 0.153, "unit": "nM"}, {"measurement": "T cell killing EC50, SK-OV-3 cells", "setting": "[2]", "result": 0.689, "unit": "nM"}, {"measurement": "T cell killing EC50, T-47D cells", "setting": "[2]", "result": 0.0845, "unit": "nM"}, {"measurement": "EC50", "setting": "[3]", "result": 81.2, "unit": "nM"}, {"measurement": "EC50", "setting": "[4]", "result": 5.05, "unit": "nM"}, {"measurement": "EC50", "setting": "[5]", "result": 5.51, "unit": "nM"}, {"measurement": "EC50", "setting": "[6]", "result": 93.7, "unit": "nM"}, {"measurement": "EC50", "setting": "[7]", "result": 59, "unit": "nM"}, {"measurement": "EC50", "setting": "[8]", "result": 287, "unit": "nM"}]}
